Results published in US20120231013A1 (Amgen, published 2012).
Residue numbers refer to the chain shown, from its start. “And” between values parts separate entries of the source, which are not always exact repeats. Equal entries are not always repeated.

T1: recombinant mouse TIMP-3 (mouse, UniProt P39876 24-211)
T1 construct: also called MuTIMP-3
T1 sequence (looked up): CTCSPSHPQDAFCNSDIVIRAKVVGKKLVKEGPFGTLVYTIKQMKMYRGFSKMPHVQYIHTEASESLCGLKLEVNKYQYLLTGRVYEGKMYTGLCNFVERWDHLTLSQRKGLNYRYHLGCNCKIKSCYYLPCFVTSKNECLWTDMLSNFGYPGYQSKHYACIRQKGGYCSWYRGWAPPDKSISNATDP

B1: LRP-1 peptide LA5-7 (peptide)
chain: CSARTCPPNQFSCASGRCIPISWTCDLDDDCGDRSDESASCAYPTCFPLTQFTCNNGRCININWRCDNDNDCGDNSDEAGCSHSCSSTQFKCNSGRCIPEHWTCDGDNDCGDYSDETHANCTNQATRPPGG
notes: Tags implied (Ni-NTA, anti-HA detection), not described
B2: recombinant human TIMP-3 (other, UniProt P35625 24-211, looked up)
chain: T1 sequence (looked up) with S51T, E87D, H103Q, S183I
B3: LRP-1 peptide LA24-26 (peptide)
chain: not shown
notes: The end 3574 is inferred from the end of LA26
B4: LRP-1 peptide LA3-5 (peptide)
chain: not shown
notes: as for B1

What was measured:
[1] = target: T2, recombinant TIMP-3 (human or mouse; Table 2 does not say which); assay: binding ELISA, Assay 1
T2 construct: The methods say 'human or mouse TIMP-3'

[2] = target: T2, recombinant TIMP-3 (human or mouse; …); assay: binding ELISA, Assay 3
recombinant human TIMP-3 [3] = target: B2; assay: cell-based or functional assay
MMP-13 [4] = target: T3, MMP-13 (UniProt P45452 20-471, limits assumed); assay: cell-based or functional assay
recombinant human TIMP-3 [5] = target: B2; assay: direct ELISA, coated huTIMP-3
Procedure: (§1) After incubation, the coating solution is removed and replaced with 250 microL/well of blocking buffer (1% BSA, TBS [pH 7.5], 1 mM CaCl₂) and incubated with shaking for 1 hour at room temperature. The plates are then washed three times with 200 microL/well with wash buffer 1 (TBS [pH 7.5], 1 mM CaCl₂). The LRP-1 peptides are titrated in assay buffer (0.1% BSA, TBS [pH 7.5], 1 mM CaCl₂, 0.02% Tween-20) in a separate polypropylene non-treated round-bottom 96-well plate (BD Falcon™) starting at 1 microM concentration and then diluted serially 4-fold for 8-points, with the last point buffer only. Then 100 microL/well of the diluted LRP-1 peptide titration is added to the TIMP-3 coated plate and allowed to bind for 1.5 hour at room temperature with shaking. After incubation, the plate is washed three times with 200 microL/well of wash buffer 2 (TBS [pH 7.5], 1 mM CaCl₂, 0.02% Tween-20). […] The assay plate is then washed three times with 200 microL/well with wash buffer 2. The plate is developed by adding 100 microL/well of 1:1 mixture of TMB and H₂O₂ (Pierce, Fisher Thermo Scientific, Rockford Il.), the reaction is stopped by adding 100 microL/well 2NH₂SO₄ (VWR), and read on a SpectraMax microplate reader (Molecular Devices, Sunnyvale, Calif.) at OD450 nm using SOFTmax Pro software version 3.1.2. Data is analyzed using GraphPad Prism 4.01 software. Binding of LRP-1 peptides to TIMP-3 is expressed as binding EC50.

recombinant mouse TIMP-3 = target: T1, recombinant mouse TIMP-3; assay: direct ELISA, coated muTIMP-3
Procedure: as §1

[6] = target: T2, recombinant TIMP-3 (human or mouse; …); assay: AlphaScreen, biotinylated TIMP-3, Assay 1
Procedure: (§2) Peptides were also evaluated by AlphaScreen® (Amplified Luminescent Proximity Homogeneous Assay; PerkinElmer, Waltham, Mass.) a very sensitive non-radioactive homogeneous assay technology that allows the screening of a large range of biological interactions and activities, substantially according to the manufacturer's instructions. Briefly, all dilutions are made in AlphaScreen® Buffer: [40 mM HEPES pH 7.5, 100 mM NaCl, 1 mM CaCl2, 0.1% BSA, 0.05% Tween-20]. The LRP-1 peptides are titrated in a separate polypropylene 96-well plate (Falcon) starting at 4 microM concentration and then diluted serially 3-fold for 12-points, with the last point buffer only. First 2 microL/well of protein titration curve is added to white, small volume, 384-well assay plate (Greiner Bio-One, Stonehouse, UK) in duplicate. Next, 2 microL of biotinylated (AFS, in-house conjmicroGation) recombinant human or mouse TIMP-3, is added at 12 nM (or 3 nM final assay concentration) to the assay plate. Lastly, in subdued light 4 microL of a mixture of streptavidin donor beads, anti-mouse IgG acceptor beads (PerkinElmer) both diluted to 20 microG/mL (10 microG/mL final assay concentration) and 2 nM (1 nM final concentration) rat-anti-HA (clone3F10)-HRP (Roche Diagnostics) is added to the plates. Plates containing 8 microL final assay volme are covered with TopSeal A (to prevent evaporation), spun quickly at 1000 rpm, and incubated overnight (covered with foil to prevent light exposure) before reading on Fusion plate reader (PerkinElmer) using AlphaScreen® parameters (excitation 680 nm and emission 520-620 nm). Data is analyzed using GraphPad Prism 4.01 software. Binding to TIMP-3 is reported as total signal (cps).

[7] = target: T2, recombinant TIMP-3 (human or mouse; …); assay: AlphaScreen, biotinylated TIMP-3, Assay 2
Procedure: as §2

recombinant human TIMP-3 [8] = target: B2; assay: indirect ELISA, huTIMP-3 captured by anti-TIMP-3 clone 277128
Procedure: Then 100 microL/well of the diluted LRP-1 peptide titration is added to the TIMP-3 coated plate and allowed to bind for 1.5 hour at room temperature with shaking. After incubation, the plate is washed three times with 200 microL/well of wash buffer 2 (TBS [pH 7.5], 1 mM CaCl₂, 0.02% Tween-20). […] The assay plate is then washed three times with 200 microL/well with wash buffer 2. The plate is developed by adding 100 microL/well of 1:1 mixture of TMB and H₂O₂ (Pierce, Fisher Thermo Scientific, Rockford Il.), the reaction is stopped by adding 100 microL/well 2NH₂SO₄ (VWR), and read on a SpectraMax microplate reader (Molecular Devices, Sunnyvale, Calif.) at OD450 nm using SOFTmax Pro software version 3.1.2. Data is analyzed using GraphPad Prism 4.01 software. Binding of LRP-1 peptides to TIMP-3 is expressed as binding EC50.
After incubation, the plate contents are discarded and 250 microL/well of blocking buffer (1% BSA, TBS [pH 7.5], 1 mM CaCl₂) is added to the plate which is incubated with shaking for 1 hour at room temperature. The plate is then washed three times with 200 microL/well with wash buffer 1 (TBS [pH 7.5], 1 mM CaCl₂) followed by the addition of 100 microL of 20 nM recombinant human TIMP-3. The plate is incubated at room temperature for 1 hour. The LRP-1 peptides are titrated as described previously, and 100 microL/well of the diluted LRP-1 peptide titration is added to the TIMP-3 coated plate and allowed to bind for 1.5 hour at room temperature with shaking. After incubation, the plate is washed and the ELISA performed substantially as described previously for the direct binding ELISA.

MMP-13 [9] = target: T3, MMP-13; assay: cell-based or functional assay; remark: listed apart in the source
[10] = target: T2, recombinant TIMP-3 (human or mouse; …); assay: binding ELISA, Assay 2

EC50 [1]	EC50 [2] [nM]	% of the inhibitory activity of TIMP-3 + peptide compared to TIMP-3 alone, 16 nM (recombinant human TIMP-3 [3]) [%]	% of the inhibitory activity of TIMP-3 + peptide compared to TIMP-3 alone, 80 nM (recombinant human TIMP-3 [3]) [%]	% of the inhibitory activity of TIMP-3 + peptide compared to TIMP-3 alone, 400 nM (recombinant human TIMP-3 [3]) [%]	% of the inhibitory activity of TIMP-3 + peptide compared to TIMP-3 alone, 2000 nM (recombinant human TIMP-3 [3]) [%]	Direct Inhibition of MMP13 (% decrease), 1000 nM (MMP-13 [4]) [%]	EC50 (recombinant human TIMP-3 [5]) [nM]	EC50 (recombinant mouse TIMP-3) [nM]	total signal (cps) [6] [cps]	total signal (cps) [7] [cps]	EC50 (recombinant human TIMP-3 [8]) [nM]	IC50 of TIMP-3 inhibition of MMP-13 (fluorogenic substrate) (MMP-13 [9]) [nM]	EC50 [10] [nM]	Binder
210 nM	350	101	99	93	68	2	94	74	2000	8000	9			B1
												0.5 to 1		B2
46 nM and 26 nM	68	92	95	105		59	28	15	150000	120000	8		80	B3
52.5 nM	214	104	101		101	2	78	71	4000	9000	8			B4
